Biological target: the molecule itself
Assay: sedimentation of polymers

B1: His6-tagged MreB (MreB-HIS) (natural protein, E. coli, UniProt P0A9X4 1-347, looked up)
chain: MLKKFRGMFSNDLSIDLGTANTLIYVKGQGIVLNEPSVVAIRQDRAGSPKSVAAVGHDAKQMLGRTPGNIAAIRPMKDGVIADFFVTEKMLQHFIKQVHSNSFMRPSPRVLVCVPVGATQVERRAIRESAQGAGAREVFLIEEPMAAAIGAGLPVSEATGSMVVDIGGGTTEVAVISLNGVVYSSSVRIGGDRFDEAIINYVRRNYGSLIGEATAERIKHEIGSAYPGDEVREIEVRGRNLAEGVPRGFTLNSNEILEALQEPLTGIVSAVMVALEQCPPELASDISERGMVLTGGGALLRNLDRLLMEETGIPVVVAEDPLTCVARGGGKALEMIDMHGGDLFSEE
binding result: binds

Reference: paper PMC3334289 (Fems Microbiology Letters, 2012)
